The source of these data is patent US20200371101A1 (Regeneron, published 2020).

Read-outs that look alike come from different tables or passages of the source. Bridge positions count the residues as written; N and C are the ends. Square brackets hold non-standard residues; d marks the D form. Primed or numbered codes have the meaning given here. Ends that are not written are not given here. * marks the point of attachment. Biotin = O=C1N[C@H]2[C@H](CS[C@H]2CCCCC(=O)*)N1; PEG6′ = PEG linker with 6 ethylene glycol units; PEG8′ = PEG linker with 8 ethylene glycol units; Trp(1-Me) = Cn1cc(C[C@H](N)C(=O)O)c2ccccc21; Phe(4-F) = N[C@@H](Cc1ccc(F)cc1)C(=O)O; Me‑Phe = methyl phenylalanine; PEG3′ = not defined here; Ph‑Tyr = phenyl tyrosine; Pra = C#CC[C@H](N)C(=O)O; Az4 = not defined here; Inh = not defined here; Me‑Val = methyl valine

Assay [1] concerns the target T1, His-tagged IDO1 human recombinant protein (71182, BPS Biosciences) (human, UniProt P14902 2-403). Nature of the assay: cell-based or functional assay.
Assay [2] has as its target T1, His-tagged IDO1 human recombinant …. Briefly: cell-based or functional assay. The source holds these as a separate data set.
Assay [3] deals with IDO1 in HeLa cells stimulated with IFNγ (UniProt P14902 1-403, limits assumed). Briefly: cell-based or functional assay.
Assay [4] deals with T1, His-tagged IDO1 human recombinant …. Briefly: binding affinity, assay not named.
For assay [5] the target is unchanged. Briefly: ELISA: biotin-PEG3 macrocycle on NeutrAvidin plate, His-tagged human IDO1 titrated, AP-conjugated anti-6XHis antibody, fluorescence.
Assay [6] has the same target. Briefly: ELISA: biotinylated peptide on NeutrAvidin plate, 6xHis-tagged human IDO1 titrated. How it is done:
The plate was aspirated and then washed with Wash Buffer (0.05% (v/v) Tween-20 in PBS, 6×). His-tagged IDO1 human recombinant protein (71182, BPS Biosciences) was serially diluted in Wash Buffer (from 200 to 0 nM) and incubated in the designated microwells for 1 h at room temperature. […] (ab49746, Abcam) was prepared at 1:10,000 dilution and added to the microwells for 1 h at room temperature. The plate was aspirated and washed with Wash Buffer (5×). AttoPhos® AP Fluorescent Substrate System (S1000, Promega) was employed to develop the microwells. Using an excitation wavelength of 430 nm, fluorescent emission at 535 nm was recorded by Beckman Coulter DTX880 photometer.
(In an ELISA, binding on a coated surface is turned into a signal by an enzyme label.)

The target is the same in assay [7]. Briefly: cell-based or functional assay. The source holds these as a separate data set.

T1 sequence (P14902 2-403 limits assumed): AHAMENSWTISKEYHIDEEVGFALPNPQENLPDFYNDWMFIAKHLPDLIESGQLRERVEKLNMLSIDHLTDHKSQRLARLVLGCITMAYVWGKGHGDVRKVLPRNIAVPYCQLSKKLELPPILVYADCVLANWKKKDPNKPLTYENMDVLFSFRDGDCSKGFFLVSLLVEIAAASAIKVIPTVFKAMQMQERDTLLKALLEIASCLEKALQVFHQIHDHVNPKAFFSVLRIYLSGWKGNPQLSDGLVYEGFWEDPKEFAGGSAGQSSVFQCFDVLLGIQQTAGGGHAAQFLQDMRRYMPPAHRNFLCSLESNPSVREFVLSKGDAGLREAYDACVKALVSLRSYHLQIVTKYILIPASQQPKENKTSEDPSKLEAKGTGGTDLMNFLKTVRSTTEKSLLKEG
Sequence of IDO1 in HeLa cells stimulated with IFNγ (P14902 whole entry): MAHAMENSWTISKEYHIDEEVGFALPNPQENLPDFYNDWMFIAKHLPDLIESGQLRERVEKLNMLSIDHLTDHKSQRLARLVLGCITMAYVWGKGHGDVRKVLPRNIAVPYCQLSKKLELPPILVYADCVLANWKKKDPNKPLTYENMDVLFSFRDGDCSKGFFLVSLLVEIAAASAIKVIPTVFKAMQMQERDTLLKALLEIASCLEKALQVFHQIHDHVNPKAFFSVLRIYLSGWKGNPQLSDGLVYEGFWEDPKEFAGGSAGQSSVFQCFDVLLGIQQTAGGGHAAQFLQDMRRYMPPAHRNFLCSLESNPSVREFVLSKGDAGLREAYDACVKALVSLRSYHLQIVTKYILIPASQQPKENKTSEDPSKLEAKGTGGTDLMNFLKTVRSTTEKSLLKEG

B1: Inh-PEG6-wyry (other)
peptide: {Inh-PEG6′}-[Pra][dW][dY][dR][dY]-Az4
modifications: triazole N-C; numbers in words are those of the source; reading uncertain; also: Inh joined through PEG6 linker, printed as Inh-PEG6-wyry
As to B1, the “IC50, IDO1 inhibition assay” value in assay [1] was 338 nM. For the same molecule, the “Inhibition Recombinant IDO1 IC50” value in assay [2] was found to be 338 nM. In addition, in assay [3], the “% inhibition at 8 µM, HeLa” value amounted to 47.8%. For [dW][Ph‑Tyr][Me‑Val]G[Me‑Phe] (not fully specified; printed as w(Ph-Tyr)(Me-Val)G(Me-Phe), Modified version of wyvay) [w(Ph-Tyr)(Me-Val)G(Me-Phe)], the EC50 in assay [4] came to 18 nM.

B2: Inh-PEG4-wyry (other)
peptide: [Pra][dW][dY][dR][dY]-Az4
modifications: triazole N-C; numbers in words are those of the source; reading uncertain; also: small molecule Inh joined via PEG4 linker, attachment point not given here
For B2, the “IC50, IDO1 inhibition assay” value in assay [1] was found to be 871 nM.

B3: Inh-PEG8-wyry (other)
peptide: {Inh-PEG8′}-[Pra][dW][dY][dR][dY]-Az4
modifications: triazole N-C; numbers in words are those of the source; reading uncertain; also: Inh joined through PEG8 linker, printed as Inh-PEG8-wyry
For the molecule B3, the “IC50, IDO1 inhibition assay” value in assay [1] was determined as 3740 nM. {Biotin-PEG3′}-[dW]-[dW]-[Phe(4-F)] (triazole (positions not given here); also: triazole-cyclised) [ww(F-Phe)]: the EC50 in assay [5] came to 96 nM.

B4: (F-Phe)n(Me-Trp)(Me-Trp)w macrocycle (peptide)
peptide: [Pra][Phe(4-F)][dN][Trp(1-Me)][Trp(1-Me)][dW]-Az4
modifications: triazole N-C; reading uncertain; also: biotinylated for ELISA, site not given here, printed as (F-Phe)n(Me-Trp)(Me-Trp)w
B4: the EC50 in assay [6] was 100 nM.

B5: Deprotected-Inh-Gly2-wyvay (other)
peptide: Inh-GG[dW][dY][dV][dA][dY]
modifications: triazole (positions not given here); not fully specified (residue 2, C-terminus); printed as Deprotected-Inh-Gly2-wyvay; reading uncertain; also: IDO1 inhibitor Inh on the Gly2 linker, ring closed by triazole between flanking Pra and Az4
Take B5: the “IC50, IDO1 inhibition assay” value in assay [7] turned out to be 1010 nM.

As a reminder, the % inhibition is the change of the read-out against control, counted positive when it falls. A lower % inhibition goes with a response near the control. One may read the EC50 as the concentration needed to bring the measured effect to its halfway point.
